The text below walks through data of US20170073408A1 (Amgen, published 2017).

The chains are these.
B1: recombinant human activin A (mature) (ligand)
chain: GLECDGKVNICCKKQFFVSFKDIGWNDWIIAPSGYHANYCEGECPSHIAGTSGSSLSFHSTVINHYRMRGHSPFANLKSCCVPTKLRPMSMLYYDDGQNIIKKDIQNMIVEECGCS
notes: also called r-HuActivin A; rhActivin A
B2: anti-activin A monoclonal antibody A1 (antibody, human IgG2, lambda, V domains shown)
VH: QVQLVQSGAEVKKPGASVKVSCKASGYTFTSYGLSWVRQAPGQGLEWMGWIIPYNGNTNSAQKLQGRVTMTTDTSTSTAYMELRSLRSDDTAVYFCARDRDYGVNYDAFDIWGQGTMVTVSS
VL: not shown
notes: Fully human antibody from XenoMouse hybridoma (strains giving IgG2 kappa or IgG4 kappa); also called L1H1; Mab A1
B3: anti-activin A monoclonal antibody A2 (antibody, human IgG2, kappa, V domains shown)
VH: QVQLVESGGGVVQPGRSLRLSCAASGFTFSSYGMHWVRQAPGKGLEWVAVIWYDGSNKYHADSVKGRFTISRDNSKNTLYLQVNSLRAEDTAVYYCVRSRNWNYDNYYYGLDVWGQGTTVTVSS
VL: DIQMTQSPSSLSASVGDRVTITCRASQGIRNNLGWYQQKPGKAPKRLIYAASSLQSGVPSRFSGSGSGTEFTLTISSLQPEDFTTYYCLQHNSYPWTFGQGTKVEIKR
notes: Fully human antibody from XenoMouse hybridoma; also called L2H2

Experiment [1] has as its target B3. As to the kind of experiment: KinExA solution equilibrium, antibody A2 (A30) fixed at 100 pM. How it is done: (§1) Solution-based equilibrium-binding assays using KinExA™ technology (Sapidyne Instruments, Inc.) were used to determine the dissociation equilibrium (KD) of activin A binding to antibody molecules. This solution-based assay is considered to be more sensitive than the BIAcore assay in some instances. Reacti-Gel™ 6× was pre-coated with about 50 μg/ml activin A overnight, and then blocked with BSA. 30 pM and 100 pM of antibody samples were incubated with various concentrations (0.5 pM to 5 nM) of activin A in sample buffer at room temperature for 8 hours before being run through the activin A-coated beads. The amount of the bead-bound antibody was quantified by fluorescent (Cy5) labeled goat anti-human-Fc antibody at 1 mg/ml in superblock. The binding signal was proportional to the concentration of free antibody at equilibrium with a given activin A concentration. KD was obtained from the nonlinear regression of the competition curves using a dual-curve one-site homogeneous binding model provided in the KinEx ATM software (Sapidyne Instruments, Inc.). […] A2 and A3 bound to activin A at ˜15 pM and ˜8 pM, respectively.
On the technique in general: In KinExA the mixture passes briefly over coated beads that capture the unbound partner.

The target of experiment [2] is T1, A31-2.
T1 construct: bars A52-1, A31-2, A30-2) make A3 likely; not assigned here
In words: KinExA solution equilibrium, antibody A31 fixed at 30 pM. The method, then: as §1

The target of experiment [3] is B2. In words: KinExA solution equilibrium, antibody A1 (A52) fixed at 30 pM. The method, then: as §1
Experiment [4] has as its target B2. In words: KinExA solution equilibrium, antibody A1 (A52) fixed at 100 pM. The method, then:
as §1

The target of experiment [5] is T1, A31-2. In words: KinExA solution equilibrium, antibody A31 fixed at 100 pM. The method, then: as §1
In experiment [6] the target is B3. As to the kind of experiment: KinExA solution equilibrium, antibody A2 (A30) fixed at 30 pM. How it is done:
as §1

In experiment [7] the target is B1. As to the kind of experiment: affinity analysis of Example 15 (method of the KD not given).
In experiment [8] the target is B1. As to the kind of experiment: cell-based or functional assay.
In the next experiment the target is T2, A/B13-39.
T2 construct: also called Activin A 13/39 B
T2 activin A/B chimeric subunit: B1 chain with K13R, K14Q, V18I, S19D, K21R, D22L, S33T, H36Y, A37G
As to the kind of experiment: Biacore blocking: 100 nM antibody + diluted conditioned medium (CM) of the ligand over ActRIB-Fc surface. (In SPR one partner is held on a chip, and binding of the other changes the refractive index at the surface.)

Experiment [9] addresses B1. In words: BIAcore blocking assay, 1 nM activin A; competitor rhActivin RIIB/Fc chimera on chip. How it is done: (§2) Blocking assays were conducted on immobilized recombinant human activin RIB-Fc chimera surfaces, recombinant human activin RIIB-Fc chimera surfaces, and recombinant human RIIA-Fc chimera recombinant surfaces, as described in Example 5. Monoclonal antibodies A1, A2, AKA1, and AKA2 on each chimera surface were incubated with 1 nM activin A, and the relative binding response (%) was measured.

Another experiment addresses T3, GDF-8 (UniProt O14793 267-375).
T3 construct: Bought
T3 sequence (looked up): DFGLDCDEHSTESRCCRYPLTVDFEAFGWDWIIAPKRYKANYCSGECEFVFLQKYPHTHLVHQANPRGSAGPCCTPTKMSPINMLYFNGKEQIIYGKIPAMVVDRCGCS
In words: BIAcore, antibody pre-incubated with ligand, ActRIIB/Fc on chip. How it is done: (§3) These assays were performed using BlAcore® technology, to determine the selectivity of binding of antibodies A1, A2 and A3 to various activins and other TGF-β family members, including activin A, activin B, activin AB, inhibin A, GDF-8, GDF-11, TGF-β-1, TGF-β-3, and BMP4 (all from R & D Systems). […] Because BlAcore assays detect changes in the refractive index, the difference between the response detected with injection over the immobilized receptor surfaces compared with the response detected with injection over the control surface in the absence of any antibody represents the actual binding of the various ligands to the receptor. With pre-incubation of antibodies and activin and TGF-β molecules, a change (increase or decrease) in binding response indicates antibody binding to the TGFβ family of molecules. The antibodies all bound to activin A but not to activin B, GDF-8, GDF-11, TGF-β-1, TGF-β-3, and BMP4, thus indicating specificity for activin A.

The target of a further experiment is T4, TGF-β-3 (UniProt P10600 301-412).
T4 construct: Bought
T4 sequence (looked up): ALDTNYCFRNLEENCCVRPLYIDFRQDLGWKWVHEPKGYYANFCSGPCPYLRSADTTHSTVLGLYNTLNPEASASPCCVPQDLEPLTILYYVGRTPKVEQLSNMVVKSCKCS
The description is as above. How it is done:
as §3

The target of a further experiment is T5, GDF-11 (UniProt O95390 299-407).
T5 construct: Bought
T5 sequence (looked up): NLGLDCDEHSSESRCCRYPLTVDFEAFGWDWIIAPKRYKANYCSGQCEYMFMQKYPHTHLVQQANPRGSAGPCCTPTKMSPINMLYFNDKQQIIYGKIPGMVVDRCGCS
Described as above. The method, then: as §3

The next experiment has as its target T6, TGF-β-1 (UniProt P01137 279-390).
T6 construct: Bought
The description is as above. How it is done:
as §3

The target of the next experiment is T7, BMP4 (UniProt P12644 293-408).
T7 construct: Bought
T7 sequence (looked up): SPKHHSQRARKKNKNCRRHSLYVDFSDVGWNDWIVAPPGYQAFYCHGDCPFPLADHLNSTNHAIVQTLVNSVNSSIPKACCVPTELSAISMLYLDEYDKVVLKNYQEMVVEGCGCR
Described as above. How it is done:
as §3

A further experiment concerns the target T8, activin B (UniProt P09529 293-407).
T8 construct: Bought (R & D Systems)
T8 sequence (looked up): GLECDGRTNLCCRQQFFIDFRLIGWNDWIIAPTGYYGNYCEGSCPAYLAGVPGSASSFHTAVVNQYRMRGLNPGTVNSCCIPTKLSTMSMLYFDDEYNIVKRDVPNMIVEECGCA
In words: affinity analysis of Example 15 (antibody immobilized on a surface).

Experiment [10] has as its target B1. In words: Biacore blocking: 1 nM Activin A + antibody over rhActRIB-Fc chimera surface. No unit in the drawn table; M by Table 7, which prints this value rounded as 0.29 nM.
Experiment [11] deals with B1. As to the kind of experiment: BIAcore blocking assay, 1 nM activin A; competitor rhActivin RIB/Fc chimera on chip. The method, then:
as §2

The target in experiment [12] is B1. As to the kind of experiment: BIAcore blocking assay, 1 nM activin A; competitor rhActivin RIIA/Fc chimera on chip. The method, then:
as §2

For experiment [13], the target named is B1. As to the kind of experiment: Biacore blocking: 1 nM Activin A + antibody over rhActRIB-Fc chimera surface. No unit in the drawn table; M by Table 7, which prints this value rounded as 0.18 nM.
For experiment [14], the target named is B1. In words: KinExA solution equilibrium, activin A-coated beads. How it is done: as §1
Experiment [15] deals with B1. In words: Biacore: 1 nM Activin A + sample over rhActivin RIIB/Fc Chimera surface; rising ('carry on') curve. How it is done:
as §2

As usually defined, the Kd is the constant that tells how readily two partners part at equilibrium. One may read the EC50 as the concentration needed to bring the measured effect to its halfway point. One may read the EC50 (read off the curve) as the concentration that produces a half-maximal response.

Substitutions are numbered along the chain they refer to.

T6 sequence (P01137 279-390 limits assumed): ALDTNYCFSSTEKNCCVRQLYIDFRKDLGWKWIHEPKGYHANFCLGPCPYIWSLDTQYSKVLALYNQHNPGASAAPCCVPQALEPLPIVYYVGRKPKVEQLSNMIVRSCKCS

In the case of B1, the “IC50 (read off the curve)” value in experiment [1] was ~100 pM; in the experiment with A31-2 [2], ~30 pM; in experiment [3], ~20 pM; in experiment [4], ~70 pM; with A31-2 [5] it was ~80 pM; in experiment [6], ~40 pM.
Take B2: the Kd in [7] was ~3 pM. Besides, in experiment [8], the “Cell IC50 (nM); luciferase activity of C2C12/pMARE reporter cells, activin A fixed at 4 nM” value was < 3 nM. Further, the binding result was “no binding (tested: 100 nM)” with A/B13-39; “no binding” with GDF-8; “no binding” with TGF-β-3; “no binding” with GDF-11; “no binding” in the experiment with TGF-β-1; “no binding” with BMP4. For the same molecule, the binding result in the experiment with activin B is recorded as “no binding”. In addition, the EC50 in experiment [9], in [10], in [11] and in [12] was 290 pM each time.
Turning to B3, the values for the Kd in experiment [7] and in experiment [14] were ~25 pM and ~15 pM, respectively. For the same molecule, the “Cell IC50 (nM); luciferase activity of C2C12/pMARE reporter cells, activin A fixed at 4 nM” value in experiment [8] is < 3 nM. The EC50 in experiment [13] is 177 pM; in experiment [11], 180 pM. Moreover, the binding result with A/B13-39 is listed as “binds”; with GDF-8, “no binding”; with TGF-β-3, “no binding”; with GDF-11, “no binding”; with TGF-β-1, “no binding”; in the experiment with BMP4, “no binding”. Also, the binding result in the experiment with activin B is “no binding”. Moreover, the “EC50 (read off the curve)” value in experiment [15] is ~1000 pM.
